Measurements: patent US8703698B2, “Compositions and methods for treating atherosclerosis” (The University of Chicago, priority 2003, dated 2014)
Blank lines part the entries; values can stand above or below the molecule they belong to.

Columns and labels:
[1] = molecular target: T1, acyl CoA:cholesterol acyl transferase (Mus musculus, UniProt Q61263); test: Incorporation of [14C]oleate into cholesteryl ester in cholesterol-laden macrophages (ACAT activity); type: cell-based, murine; conditions: for relative acyl CoA:cholesterol acyl transferase activity: liposomes containing 0.5 μM synthetic peptide, 6 hour incubation, cholesterol-laden murine cells
T1 construct: host or cells: J774 mouse macrophages, cholesterol-loaded
T1 sequence (Q61263 1-540): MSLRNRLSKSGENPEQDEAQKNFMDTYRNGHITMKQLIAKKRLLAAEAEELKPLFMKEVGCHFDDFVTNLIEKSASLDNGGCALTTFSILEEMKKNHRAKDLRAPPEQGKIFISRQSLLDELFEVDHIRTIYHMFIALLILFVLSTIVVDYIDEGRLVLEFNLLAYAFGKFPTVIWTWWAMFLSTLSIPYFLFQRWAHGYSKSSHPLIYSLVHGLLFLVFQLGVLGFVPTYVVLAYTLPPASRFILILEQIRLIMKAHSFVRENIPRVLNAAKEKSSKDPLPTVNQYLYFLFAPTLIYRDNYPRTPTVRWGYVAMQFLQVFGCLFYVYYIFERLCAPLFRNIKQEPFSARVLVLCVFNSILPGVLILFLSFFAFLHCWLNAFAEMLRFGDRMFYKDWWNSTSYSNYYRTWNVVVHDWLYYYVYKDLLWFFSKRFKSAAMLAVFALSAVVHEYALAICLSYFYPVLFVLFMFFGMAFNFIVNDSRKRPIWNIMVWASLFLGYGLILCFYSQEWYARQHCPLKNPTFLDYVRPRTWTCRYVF

[2] = tested on: [3H]-cholesterol-loaded J774 macrophages; test: In vivo cholesterol efflux to plasma in mice injected with [3H]-cholesterol-loaded J774 macrophages; conditions: for [3H]-cholesterol efflux as plasma radioactivity (dpm) (FIG. 1): intravenous liposomes containing 0.5 μM peptide, 24 hours after macrophages
Procedure: In these experiments, in vivo cholesterol export was determined in mice injected with J774 macrophages cholesterol-loaded with RBC membranes and [^3H]-cholesterol. Two hundred thousand macrophages in 100:1 PBS were injected into each mouse through the tail vein. At various time points thereafter, approximately 25:1 of blood were collected from the tail vein of each animal into heparinized capillary tubes. The tubes were then centrifuged for 5 minutes in an Adams Autocrit Centrifuge to separate red blood cells from plasma. Cholesterol efflux was determined by measuring the appearance of [^3H]-cholesterol in plasma by scintillation spectrometry. To study whether export of cholesterol from J774 cells to plasma was influenced by non-liposome formulated D-27mer peptide (SEQ ID NO:10), 24 hours after injection of cholesterol-loaded J774 macrophages into mice, the same animals received, by intravenous injection, 30 μg, 60 μg, 150 μg, 225 μg, 300 μg or 600 μg of D-27mer. All these amounts of D-peptides were dissolved in 100:l of phosphate buffered saline and injected through the tail vein of each animal.
Additional in vivo studies have also been conducted wherein mice were first injected intravenously with [^3H]cholesterol-laden macrophages and then injected 24 hours later with liposomes containing 0.5 μM of synthetic peptides corresponding to amino acid residues 1-20, 21-50, 51-80 or 74-103 of murine SAA2.1. Results from this study are depicted in FIG. 1. At time points indicated in the graph of FIG. 1, approximately 25 μl of blood were collected from the tail vein of each animal. The blood samples were centrifuged to separate the red blood cells from the plasma and the [^3H]-cholesterol in plasma was determined by scintillation counting. Results are mean±SEM of four determinations.
To determine cholesterol export in vivo, J774 macrophages were cholesterol-loaded with red blood cell membranes and [^3H]-cholesterol as described above. Cells were washed four times with PBS/BSA and then detached from the culture dishes. Five million cells in 200 μl DMEM were injected into control mice or inflamed mice through the tail vein. At various time points, approximately 25 μl of blood were collected from the tail vein of each animal into heparinized capillary tubes and then centrifuged for 5 minutes in an Adams Autocrit Centrifuge to separate red blood cells from plasma. Cholesterol efflux was determined by measuring the appearance of [^3H]-cholesterol in plasma by scintillation spectrometry.
J774 cells cultured in 6-well plates were enriched with cholesterol by incubating with red blood cell (RBC) membrane fragments (175:g as cholesterol) that had been previously labeled with 0.5:Ci/ml [^3H]-cholesterol at 37° C. for 24 hours in 0.2% bovine serum albumin (BSA). After loading with the labelled RBC membrane for 6 hours, cells were then washed with phosphate-buffered saline/BSA (PBS/BSA) three times followed by an 18 hour equilibration period during which monolayers were exposed to DMEM/BSA. To determine cholesterol export in vivo, J774 macrophages were cholesterol-loaded with RBC membranes and [^3H]-cholesterol as described previously above. Cells were washed four times with PBS/BSA and then detached from the culture dishes. Two hundred thousand cells in 100:l PBS were injected into mice through the tail vein. At various time points thereafter, approximately 25:l of blood were collected from the tail vein of each animal into heparinized capillary tubes. These tubes were then centrifuged for 5 minutes in an Adams Autocrit Centrifuge to separate red blood cells from plasma. Cholesterol efflux was determined by measuring the appearance of [^3H]-cholesterol in plasma by scintillation spectrometry. […]

- relative acyl CoA:cholesterol acyl transferase activity [1]: no significant effect
Molecule: DTIADQEANRHGRSGKDPNYYRPPGLPDKY [SEQ ID NO:4, synthetic peptide, residues 74-103 of murine SAA2.1]
- [3H]-cholesterol efflux as plasma radioactivity (dpm) (FIG. 1) [2]: dramatically increased

- relative acyl CoA:cholesterol acyl transferase activity [1]: two-fold decrease
Molecule: GFFSFVHEAFQGAGDMWRAY [SEQ ID NO:1, synthetic peptide, residues 1-20 of murine SAA2.1]
- [3H]-cholesterol efflux as plasma radioactivity (dpm) (FIG. 1) [2]: dramatically increased

B1: GFFSFVHEAFQGAGDMWRAYTDMKEANWKNSDKYFHARGNYDAAQRGPGGVWAAEKISD GREAFQEFFGRGHEDTIADQEANRHGRSGKDPNYYRPPGLPDKY (protein, listed as Mus musculis)
chain: GFFSFVHEAFQGAGDMWRAYTDMKEANWKNSDKYFHARGNYDAAQRGPGGVWAAEKISDGREAFQEFFGRGHEDTIADQEANRHGRSGKDPNYYRPPGLPDKY
notes: full length murine serum amyloid A isoform 2.1 purified from acute phase plasma
- acyl CoA:cholesterol acyl transferase activity in intact cholesterol-laden macrophages ([1]; lipoproteins or protein liposomes, tissue culture): marked reduction of acyl CoA:cholesterol acyl transferase activity
- cholesterol release from macrophages pretreated with protein liposomes and injected into un-inflamed mice ([2]; cholesterol-loaded macrophages pretreated with liposomes, injected intravenously): recapitulated the major cholesterol releasing effect
- radiolabeled cholesterol exported in the plasma (FIG. 15) ([2]; non-liposome formulated, in 100 μl PBS, intravenous, 15 μg/mouse peptide or 75 μg/mouse full length protein): exceeded the increase observed following administration of the D-27mer peptide
